{
  "source": "patent US20110118131A1",
  "about": "(published 2011)",
  "binders": {"B1": {"name": "XPA23 heavy chain D106G (Fab, V domains shown)", "VH": "EVQLLESGGGLVQPGGSLRLSCAASGFTFSKYFMFWVRQAPGKGLEWVSVISPSGGMTRYADSVKGRFTISRDNSKNTLYLQMNSLRAEDTAVYYCARVGYGGNSGYWGQGTLVTVSS", "VL": "DIQMTQSPSSVSASVGDRLTIICRASQDINRWLAWYQQTPGNAPKLLIHSATSLQSGVPSRFSGSGSGTDFTLTINSLQPEDFATYYCQQADSFPLTFGGGTKVEIK", "notes": "Fab, periplasmic extract; also called C5A D106G"}, "B2": {"name": "XPA23 heavy chain G56L (Fab, V domains shown)", "VH": "B1 VH with G56L, G106D", "VL": "B1 VL", "notes": "Fab, periplasmic extract; also called C5A G56L"}, "B3": {"name": "XPA23 heavy chain I51G (Fab, V domains shown)", "VH": "B1 VH with I51G, G106D", "VL": "B1 VL", "notes": "Fab, periplasmic extract; also called C5A I51G"}, "B4": {"name": "XPA23 heavy chain F35P (Fab, V domains shown)", "VH": "B1 VH with F35P, G106D", "VL": "B1 VL", "notes": "Fab, periplasmic extract; also called C5A F35P"}, "B5": {"name": "XPA23 heavy chain F33I (Fab, V domains shown)", "VH": "B1 VH with F33I, G106D", "VL": "B1 VL", "notes": "Fab, periplasmic extract; also called C5A F33I"}, "B6": {"name": "XPA23 heavy chain F33L (Fab, V domains shown)", "VH": "B1 VH with F33L, G106D", "VL": "B1 VL", "notes": "Fab, periplasmic extract; also called C5A F33L"}, "B7": {"name": "XPA23 heavy chain I51L (Fab, V domains shown)", "VH": "B1 VH with I51L, G106D", "VL": "B1 VL", "notes": "Fab, periplasmic extract; also called C5A I51L"}, "B8": {"name": "XPA23 heavy chain F33G (Fab, V domains shown)", "VH": "B1 VH with F33G, G106D", "VL": "B1 VL", "notes": "Fab, periplasmic extract; also called C5A F33G"}, "B9": {"name": "XPA23 heavy chain I51A (Fab, V domains shown)", "VH": "B1 VH with I51A, G106D", "VL": "B1 VL", "notes": "Fab, periplasmic extract; also called C5A I51A"}, "B10": {"name": "XPA23 heavy chain N104A (Fab, V domains shown)", "VH": "B1 VH with N104A, G106D", "VL": "B1 VL", "notes": "Fab, periplasmic extract; also called C5A N104A"}, "B11": {"name": "XPA23 heavy chain I51T (Fab, V domains shown)", "VH": "B1 VH with I51T, G106D", "VL": "B1 VL", "notes": "Fab, periplasmic extract; also called C5A I51T"}, "B12": {"name": "XPA23 heavy chain G100T (Fab, V domains shown)", "VH": "B1 VH with G100T, G106D", "VL": "B1 VL", "notes": "Fab, periplasmic extract; also called C5A G100T"}, "B13": {"name": "XPA23 heavy chain F33P (Fab, V domains shown)", "VH": "B1 VH with F33P, G106D", "VL": "B1 VL", "notes": "Fab, periplasmic extract; also called C5A F33P"}, "B14": {"name": "XPA23 heavy chain K31L (Fab, V domains shown)", "VH": "B1 VH with K31L, G106D", "VL": "B1 VL", "notes": "Fab, periplasmic extract; also called C5A K31L"}, "B15": {"name": "XPA23 heavy chain G56I (Fab, V domains shown)", "VH": "B1 VH with G56I, G106D", "VL": "B1 VL", "notes": "Fab, periplasmic extract; also called C5A G56I"}, "B16": {"name": "XPA23 heavy chain G55L (Fab, V domains shown)", "VH": "B1 VH with G55L, G106D", "VL": "B1 VL", "notes": "Fab, periplasmic extract; also called C5A G55L"}, "B17": {"name": "XPA23 heavy chain M57V (Fab, V domains shown)", "VH": "B1 VH with M57V, G106D", "VL": "B1 VL", "notes": "Fab, periplasmic extract; also called C5A M57V"}, "B18": {"name": "XPA23 heavy chain M57I (Fab, V domains shown)", "VH": "B1 VH with M57I, G106D", "VL": "B1 VL", "notes": "Fab, periplasmic extract; also called C5A M57I"}, "B19": {"name": "XPA23 heavy chain K31I (Fab, V domains shown)", "VH": "B1 VH with K31I, G106D", "VL": "B1 VL", "notes": "Fab, periplasmic extract; also called C5A K31I"}, "B20": {"name": "XPA23 heavy chain G56P (Fab, V domains shown)", "VH": "B1 VH with G56P, G106D", "VL": "B1 VL", "notes": "Fab, periplasmic extract; also called C5A G56P"}, "B21": {"name": "XPA23 heavy chain M57A (Fab, V domains shown)", "VH": "B1 VH with M57A, G106D", "VL": "B1 VL", "notes": "Fab, periplasmic extract; also called C5A M57A"}, "B22": {"name": "XPA23 heavy chain F35V (Fab, V domains shown)", "VH": "B1 VH with F35V, G106D", "VL": "B1 VL", "notes": "Fab, periplasmic extract; also called C5A F35V"}, "B23": {"name": "XPA23 heavy chain F33T (Fab, V domains shown)", "VH": "B1 VH with F33T, G106D", "VL": "B1 VL", "notes": "Fab, periplasmic extract; also called C5A F33T"}, "B24": {"name": "XPA23 heavy chain G103A (Fab, V domains shown)", "VH": "B1 VH with G103A, G106D", "VL": "B1 VL", "notes": "Fab, periplasmic extract; also called C5A G103A"}, "B25": {"name": "XPA23 heavy chain G103V (Fab, V domains shown)", "VH": "B1 VH with G103V, G106D", "VL": "B1 VL", "notes": "Fab, periplasmic extract; also called C5A G103V"}, "B26": {"name": "XPA23 heavy chain I51V (Fab, V domains shown)", "VH": "B1 VH with I51V, G106D", "VL": "B1 VL", "notes": "Fab, periplasmic extract; also called C5A I51V"}, "B27": {"name": "XPA23 heavy chain N104G (Fab, V domains shown)", "VH": "B1 VH with N104G, G106D", "VL": "B1 VL", "notes": "Fab, periplasmic extract; also called C5A N104G"}, "B28": {"name": "XPA23 heavy chain G55I (Fab, V domains shown)", "VH": "B1 VH with G55I, G106D", "VL": "B1 VL", "notes": "Fab, periplasmic extract; also called C5A G55I"}, "B29": {"name": "XPA23 heavy chain F35T (Fab, V domains shown)", "VH": "B1 VH with F35T, G106D", "VL": "B1 VL", "notes": "Fab, periplasmic extract; also called C5A F35T"}, "B30": {"name": "XPA23 heavy chain K31V (Fab, V domains shown)", "VH": "B1 VH with K31V, G106D", "VL": "B1 VL", "notes": "Fab, periplasmic extract; also called C5A K31V"}, "B31": {"name": "XPA23 heavy chain F35I (Fab, V domains shown)", "VH": "B1 VH with F35I, G106D", "VL": "B1 VL", "notes": "Fab, periplasmic extract; also called C5A F35I"}, "B32": {"name": "XPA23 heavy chain G56A (Fab, V domains shown)", "VH": "B1 VH with G56A, G106D", "VL": "B1 VL", "notes": "Fab, periplasmic extract; also called C5A G56A"}, "B33": {"name": "XPA23 heavy chain F35A (Fab, V domains shown)", "VH": "B1 VH with F35A, G106D", "VL": "B1 VL", "notes": "Fab, periplasmic extract; also called C5A F35A"}, "B34": {"name": "XPA23 heavy chain F35L (Fab, V domains shown)", "VH": "B1 VH with F35L, G106D", "VL": "B1 VL", "notes": "Fab, periplasmic extract; also called C5A F35L"}, "B35": {"name": "XPA23 heavy chain F35G (Fab, V domains shown)", "VH": "B1 VH with F35G, G106D", "VL": "B1 VL", "notes": "Fab, periplasmic extract; also called C5A F35G"}, "B36": {"name": "XPA23 heavy chain M57T (Fab, V domains shown)", "VH": "B1 VH with M57T, G106D", "VL": "B1 VL", "notes": "Fab, periplasmic extract; also called C5A M57T"}, "B37": {"name": "XPA23 heavy chain F33A (Fab, V domains shown)", "VH": "B1 VH with F33A, G106D", "VL": "B1 VL", "notes": "Fab, periplasmic extract; also called C5A F33A"}, "B38": {"name": "XPA23 heavy chain G56T (Fab, V domains shown)", "VH": "B1 VH with G56T, G106D", "VL": "B1 VL", "notes": "Fab, periplasmic extract; also called C5A G56T"}, "B39": {"name": "XPA23 heavy chain F33V (Fab, V domains shown)", "VH": "B1 VH with F33V, G106D", "VL": "B1 VL", "notes": "Fab, periplasmic extract; also called C5A F33V"}, "B40": {"name": "XPA23 heavy chain M57L (Fab, V domains shown)", "VH": "B1 VH with M57L, G106D", "VL": "B1 VL", "notes": "Fab, periplasmic extract; also called C5A M57L"}, "B41": {"name": "XPA23 light chain W32V (Fab, V domains shown)", "VH": "B1 VH with G106D", "VL": "B1 VL with W32V"}, "B42": {"name": "XPA23 light chain W32Y (Fab, V domains shown)", "VH": "B1 VH with G106D", "VL": "B1 VL with W32Y"}},
  "note": "Substitutions are numbered along the chain they refer to. Numbers in names are those of the source.",
  "data": [
    {"biological_target": "T1, IL-1β (UniProt P01584 117-269)", "T1 construct": "Antigen of XPA23", "assay": "Biacore, Fab periplasmic extract", "units": {"fold difference in affinity against the original": "fold"}, "values": [
      {"binder": "B1", "fold difference in affinity against the original": 0.03},
      {"binder": "B2", "fold difference in affinity against the original": 1.41},
      {"binder": "B3", "fold difference in affinity against the original": 0.94},
      {"binder": "B4", "fold difference in affinity against the original": 0.06},
      {"binder": "B5", "fold difference in affinity against the original": 0.75},
      {"binder": "B6", "fold difference in affinity against the original": 0.88},
      {"binder": "B7", "fold difference in affinity against the original": 0.79},
      {"binder": "B8", "fold difference in affinity against the original": 0.76},
      {"binder": "B9", "fold difference in affinity against the original": 1.04},
      {"binder": "B10", "fold difference in affinity against the original": 1.61},
      {"binder": "B11", "fold difference in affinity against the original": 0.86},
      {"binder": "B12", "fold difference in affinity against the original": 0.12},
      {"binder": "B13", "fold difference in affinity against the original": 0.91},
      {"binder": "B14", "fold difference in affinity against the original": 1.08},
      {"binder": "B15", "fold difference in affinity against the original": 1.71},
      {"binder": "B16", "fold difference in affinity against the original": 0.08},
      {"binder": "B17", "fold difference in affinity against the original": 0.03},
      {"binder": "B18", "fold difference in affinity against the original": 0.03},
      {"binder": "B19", "fold difference in affinity against the original": 0.74},
      {"binder": "B20", "fold difference in affinity against the original": 0.85},
      {"binder": "B21", "fold difference in affinity against the original": 0.03},
      {"binder": "B22", "fold difference in affinity against the original": 0.89},
      {"binder": "B23", "fold difference in affinity against the original": 0.78},
      {"binder": "B24", "fold difference in affinity against the original": 0.03},
      {"binder": "B25", "fold difference in affinity against the original": 2.56},
      {"binder": "B26", "fold difference in affinity against the original": 0.99},
      {"binder": "B27", "fold difference in affinity against the original": 1.21},
      {"binder": "B28", "fold difference in affinity against the original": 0.86},
      {"binder": "B29", "fold difference in affinity against the original": 0.74},
      {"binder": "B30", "fold difference in affinity against the original": 0.81},
      {"binder": "B31", "fold difference in affinity against the original": 0.85},
      {"binder": "B32", "fold difference in affinity against the original": 1.21},
      {"binder": "B33", "fold difference in affinity against the original": 0.07},
      {"binder": "B34", "fold difference in affinity against the original": 0.78},
      {"binder": "B35", "fold difference in affinity against the original": 0.04},
      {"binder": "B36", "fold difference in affinity against the original": 0.06},
      {"binder": "B37", "fold difference in affinity against the original": 0.75},
      {"binder": "B38", "fold difference in affinity against the original": 1.11},
      {"binder": "B39", "fold difference in affinity against the original": 0.76},
      {"binder": "B40", "fold difference in affinity against the original": 0.06}
    ]},
    {"biological_target": "T2, IL-1β (UniProt P01584 117-269)", "T2 construct": "Antigen immobilised on the Biacore chip", "assay": "Biacore, periplasmic extract", "values": [
      {"binder": "B41", "binding result": "no binding"},
      {"binder": "B42", "binding result": "no binding"}
    ]}
  ]
}
